Target: taxol-stabilized microtubules (control, undigested, with E-hooks) (porcine) (UniProt P02550)
Sequence (P02550 whole entry, chain 1 of 2): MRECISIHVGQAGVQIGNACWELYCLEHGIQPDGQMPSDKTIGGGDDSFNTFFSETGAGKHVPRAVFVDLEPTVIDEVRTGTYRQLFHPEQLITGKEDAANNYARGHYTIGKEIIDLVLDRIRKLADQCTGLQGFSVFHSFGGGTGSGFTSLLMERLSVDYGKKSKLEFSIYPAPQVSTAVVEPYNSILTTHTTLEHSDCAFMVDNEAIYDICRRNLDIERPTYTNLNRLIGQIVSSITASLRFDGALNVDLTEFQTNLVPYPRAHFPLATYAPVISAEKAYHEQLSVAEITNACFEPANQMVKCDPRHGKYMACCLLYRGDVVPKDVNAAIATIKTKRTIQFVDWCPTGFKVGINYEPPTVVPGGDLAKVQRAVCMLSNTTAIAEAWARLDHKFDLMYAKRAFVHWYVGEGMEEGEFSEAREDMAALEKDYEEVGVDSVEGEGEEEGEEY
Sequence (chain, as listed by the source, chain 2 of 2): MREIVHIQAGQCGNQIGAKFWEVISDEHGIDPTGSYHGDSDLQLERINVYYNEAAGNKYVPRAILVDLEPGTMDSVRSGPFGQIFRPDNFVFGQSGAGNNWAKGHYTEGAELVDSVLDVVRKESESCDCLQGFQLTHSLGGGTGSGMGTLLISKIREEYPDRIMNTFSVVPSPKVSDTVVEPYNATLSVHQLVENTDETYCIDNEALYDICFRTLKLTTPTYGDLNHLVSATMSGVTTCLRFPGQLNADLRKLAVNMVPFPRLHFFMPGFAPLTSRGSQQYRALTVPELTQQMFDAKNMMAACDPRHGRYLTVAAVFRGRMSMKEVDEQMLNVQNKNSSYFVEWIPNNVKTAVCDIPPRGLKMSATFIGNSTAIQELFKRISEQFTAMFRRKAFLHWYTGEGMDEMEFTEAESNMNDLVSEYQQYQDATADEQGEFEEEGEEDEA

K m(MT) of the microtubule-stimulated ATPase activity of GST–dynein331 (0–2 µM microtubules), with 200 nM She1: 0.04 µM
K m(MT) of the microtubule-stimulated ATPase activity of GST–dynein331 (0–2 µM microtubules), without She1: 0.1 µM
Substance: GST–dynein331, artificially dimerized (via glutathione S-transferase) dynein motor domain fragment, P36022 1-4092
